Positions count from the first letter of the chain named.
Experiments:
[1] = target: T1, RC3H2 RNA-binding region (HEPN+ROQ), wild type (Homo sapiens, UniProt Q9HBD1 87-404); assay: analytical SEC; ITC: 20 mM Tris-HCl pH 8.0, 150 mM NaCl, 1 mM TCEP, 25 C; 200-500 uM RNA injected into 15-30 uM protein, one-site model; conditions: protein: recombinant
T1 sequence: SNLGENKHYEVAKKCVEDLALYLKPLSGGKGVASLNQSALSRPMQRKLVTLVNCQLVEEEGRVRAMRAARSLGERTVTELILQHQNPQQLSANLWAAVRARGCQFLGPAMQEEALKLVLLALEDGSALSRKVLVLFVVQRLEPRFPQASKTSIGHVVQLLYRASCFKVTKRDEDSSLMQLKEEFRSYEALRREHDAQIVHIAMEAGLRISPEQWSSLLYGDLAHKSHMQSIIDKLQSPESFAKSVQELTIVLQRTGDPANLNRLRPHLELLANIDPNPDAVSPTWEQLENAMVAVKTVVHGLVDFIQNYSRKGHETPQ

[2] = target: T1, RC3H2 RNA-binding region (HEPN+ROQ), …; assay: crystal structure; duplex contacts HEPN and ROQ; same ASU also has stem-loop RNA; 2.5 A; ITC: 20 mM Tris-HCl pH 8.0, 150 mM NaCl, 1 mM TCEP, 25 C; 200-500 uM RNA injected into 15-30 uM protein, one-site model; conditions: protein: recombinant; tags: His6-tag (pET28-MHL N-terminal TEV-cleavable, or pNIC-CH C-terminal uncleavable); removed by TEV where applicable; antiparallel self-duplex, 2 copies of strand; 10 Watson-Crick bp plus central UGU with U7-U9 wobble pairs
[3] = target: T2, RC3H2 stem-loop triple mutant (Homo sapiens, UniProt Q9HBD1 87-404, Q244A;Y247A;R248E); assay: analytical SEC; 47.3 kDa complex; ITC: 20 mM Tris-HCl pH 8.0, 150 mM NaCl, 1 mM TCEP, 25 C; 200-500 uM RNA injected into 15-30 uM protein, one-site model; conditions: protein: recombinant; tags: His6-tag, removed by TEV where applicable; mixture of hairpin and self-duplex in solution
T2 sequence: T1 sequence with Q158A, Y161A, R162E

[4] = target: T1, RC3H2 RNA-binding region (HEPN+ROQ), …; assay: ITC; ITC: 20 mM Tris-HCl pH 8.0, 150 mM NaCl, 1 mM TCEP, 25 C; 200-500 uM RNA injected into 15-30 uM protein, one-site model; conditions: protein: recombinant, tags: His6-tag (pET28-MHL N-terminal TEV-cleavable, or pNIC-CH C-terminal uncleavable), removed by TEV where applicable
[5] = target: T3, RC3H2 quaternary mutant (triple mutant + phosphomimic) (Homo sapiens, UniProt Q9HBD1 87-404, Q244A;Y247A;R248E;S323E); assay: ITC; attributed to duplex form of Tnf23; ITC: 20 mM Tris-HCl pH 8.0, 150 mM NaCl, 1 mM TCEP, 25 C; 200-500 uM RNA injected into 15-30 uM protein, one-site model; conditions: protein: recombinant; tags: His6-tag, removed by TEV where applicable; mixture of hairpin and self-duplex in solution
T3 sequence: T1 sequence with Q158A, Y161A, R162E, S237E

[6] = target: T2, RC3H2 stem-loop triple mutant; assay: ITC; ITC: 20 mM Tris-HCl pH 8.0, 150 mM NaCl, 1 mM TCEP, 25 C; 200-500 uM RNA injected into 15-30 uM protein, one-site model; conditions: protein: recombinant; tags: His6-tag, removed by TEV where applicable; hairpin; mainly stem-loop in solution
[7] = tags: His6-tag (pET28-MHL N-terminal TEV-cleavable, or pNIC-CH C-terminal uncleavable), removed by TEV where applicable, hairpin and/or self-duplex

AUAACUUCUGUGAAGUUGC (structured_RNA) [Roquin CDE RNA, 19-nt]
binding result [1, 7]: binds

B1: Ier3 CDE RNA duplex (crystal) (dsRNA)
RNA 1: AUGUUCUGUGAACAC
RNA 2: AUGUUCUGUGAACAC
binding result [2]: binds

ACAUGUUUUCUGUGAAAACGGAG (structured_RNA) [Tnf23 CDE RNA, 23-nt]
binding result [3]: binds | Kd ([4]; mixture of hairpin and self-duplex in solution): 144 ± 50 nM | Kd [5]: 590 nM

B2: dsICOS (called 24-bp; 23 nt printed) (dsRNA)
RNA 1: UCUUCAGUCUAGACAGUUCGCUU
RNA 2: AAGCGAACUGUCUAGACUGAAGA
binding result ([1]; tags: His6-tag (pET28-MHL N-terminal TEV-cleavable, or pNIC-CH C-terminal uncleavable; removed by TEV where applicable; ends not further stated)): binds

UUAAUAACUUCUGUGAAGUUGUUUAC (structured_RNA) [Roquin2 CDE RNA (called 27-nt; 26 nt printed)]
binding result [1, 7]: binds

AUGUUCUGUGAACAC (structured_RNA) [Ier3 CDE RNA, 15-nt]
Kd ([4]; hairpin, mainly stem-loop in solution): 356 ± 86 nM | binding result [6]: no binding

Reference: paper PMC4614863, “New Insights into the RNA-Binding and E3 Ubiquitin Ligase Activities of Roquins”
